How the values were obtained:
Assay in all cases: holdup assay
Design in all cases: key: below the threshold = too weak to quantify, mostly under pKd 3.1 to 4
CARD11, Q9BXL7 = target: T1, CARD11, Q9BXL7
T1 sequence (Q9BXL7 662-765, limits assumed, looked up): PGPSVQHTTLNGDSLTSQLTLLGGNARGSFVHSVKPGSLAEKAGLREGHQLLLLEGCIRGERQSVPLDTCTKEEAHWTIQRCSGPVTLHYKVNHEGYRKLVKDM

GRIP2_4, Q9C0E4 = target: GRIP2_4, Q9C0E4
APBA3_1, O96018 = target: T2, APBA3_1, O96018
T2 sequence (O96018 389-490, limits assumed, looked up): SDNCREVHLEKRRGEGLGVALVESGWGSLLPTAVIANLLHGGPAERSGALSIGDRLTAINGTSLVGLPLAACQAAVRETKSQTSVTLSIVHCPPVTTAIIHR

DLG4_3, P78352 = target: DLG4_3, P78352
HTRA2, O43464 = target: HTRA2, O43464
NHERF4_1, Q86UT5-2 = target: NHERF4_1, Q86UT5-2
SNTB1, Q13884 = target: T3, SNTB1, Q13884
T3 sequence (Q13884 107-205, limits assumed, looked up): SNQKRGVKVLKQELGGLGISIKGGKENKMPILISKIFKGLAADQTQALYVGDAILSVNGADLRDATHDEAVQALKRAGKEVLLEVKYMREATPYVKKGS

GRIP2_6, Q9C0E4 = target: GRIP2_6, Q9C0E4
GORASP2, Q9H8Y8 = target: GORASP2, Q9H8Y8
TJP1_3, Q07157 = target: TJP1_3, Q07157
LRRC7, Q96NW7 = target: T4, LRRC7, Q96NW7
T4 sequence (Q96NW7 1440-1537, limits assumed, looked up): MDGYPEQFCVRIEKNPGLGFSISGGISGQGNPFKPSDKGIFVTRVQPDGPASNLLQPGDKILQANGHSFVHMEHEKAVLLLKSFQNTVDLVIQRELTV

HTRA3, P83110 = target: T5, HTRA3, P83110
T5 sequence (P83110 354-453, limits assumed, looked up): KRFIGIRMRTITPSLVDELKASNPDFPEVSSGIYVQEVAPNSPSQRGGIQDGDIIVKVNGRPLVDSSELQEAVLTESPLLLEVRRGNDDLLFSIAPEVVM

GRIP1_5, Q9Y3R0 = target: T6, GRIP1_5, Q9Y3R0
T6 sequence (Q9Y3R0 568-668, limits assumed, looked up): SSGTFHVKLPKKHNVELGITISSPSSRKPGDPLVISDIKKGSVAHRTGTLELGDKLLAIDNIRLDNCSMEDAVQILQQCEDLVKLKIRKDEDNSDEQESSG

LNX1_2, Q8TBB1 = target: LNX1_2, Q8TBB1
FRMPD3, Q5JV73 = target: FRMPD3, Q5JV73
MAGI3_2, Q5TCQ9 = target: MAGI3_2, Q5TCQ9
Inadl_6, Q8NI35 = target: Inadl_6, Q8NI35
TJP3_3, O95049 = target: T7, TJP3_3, O95049
T7 sequence (O95049 375-456, limits assumed, looked up): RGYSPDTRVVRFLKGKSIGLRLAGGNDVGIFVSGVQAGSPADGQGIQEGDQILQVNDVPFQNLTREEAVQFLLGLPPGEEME

LAP2, Q96RT1 = target: LAP2, Q96RT1
PDZRN4_1, Q6ZMN7 = target: PDZRN4_1, Q6ZMN7
MPP7, Q5T2T1 = target: T8, MPP7, Q5T2T1
T8 sequence (Q5T2T1 134-230, limits assumed, looked up): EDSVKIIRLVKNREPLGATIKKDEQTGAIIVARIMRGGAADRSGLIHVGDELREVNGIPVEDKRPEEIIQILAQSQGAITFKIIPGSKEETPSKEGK

DVL3, Q92997 = target: T9, DVL3, Q92997
T9 sequence (Q92997 244-331, limits assumed, looked up): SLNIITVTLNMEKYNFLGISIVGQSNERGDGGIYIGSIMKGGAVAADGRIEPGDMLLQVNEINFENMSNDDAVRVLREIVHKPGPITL

GOPC, Q9HD26 = target: GOPC, Q9HD26
LNX2_3, Q8N448 = target: T10, LNX2_3, Q8N448
T10 sequence (Q8N448 463-564, limits assumed, looked up): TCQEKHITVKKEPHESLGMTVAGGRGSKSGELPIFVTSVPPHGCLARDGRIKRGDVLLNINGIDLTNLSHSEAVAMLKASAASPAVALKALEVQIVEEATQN

DLG2_2, Q15700 = target: DLG2_2, Q15700
HTRA1, Q92743 = target: HTRA1, Q92743
LNX1_1, Q8TBB1 = target: LNX1_1, Q8TBB1
[1] = plain residues with an end cap or a label only (N-terminal biotin on a linker: ahx)
[2] = plain residues with an end cap or a label only (N-terminal biotin on a linker: ttds)

Chain of FRMPD3, Q5JV73 (Q5JV73 12-100): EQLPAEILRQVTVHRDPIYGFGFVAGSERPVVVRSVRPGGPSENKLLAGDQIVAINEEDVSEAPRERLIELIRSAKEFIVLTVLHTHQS
Chain of LNX1_1, Q8TBB1 (Q8TBB1 261-371): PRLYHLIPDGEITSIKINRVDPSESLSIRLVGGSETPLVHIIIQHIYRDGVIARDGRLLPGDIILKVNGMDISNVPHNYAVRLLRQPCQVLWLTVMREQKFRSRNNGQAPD
Chain of HTRA2, O43464 (O43464 355-458): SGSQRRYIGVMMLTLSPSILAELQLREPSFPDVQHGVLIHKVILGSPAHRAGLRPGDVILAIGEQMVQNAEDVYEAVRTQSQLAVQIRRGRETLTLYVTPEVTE
Chain of PDZRN4_1, Q6ZMN7 (Q6ZMN7 213-318): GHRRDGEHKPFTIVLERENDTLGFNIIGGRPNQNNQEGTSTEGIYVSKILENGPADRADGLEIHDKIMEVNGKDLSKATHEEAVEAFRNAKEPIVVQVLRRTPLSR
Chain of LAP2, Q96RT1 (Q96RT1 other isoform, or with tags, fused parts or gaps): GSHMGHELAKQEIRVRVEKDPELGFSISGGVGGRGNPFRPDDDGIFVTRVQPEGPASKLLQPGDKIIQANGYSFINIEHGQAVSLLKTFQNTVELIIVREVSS
Chain of NHERF4_1, Q86UT5-2 (Q86UT5 other isoform, or with tags, fused parts or gaps): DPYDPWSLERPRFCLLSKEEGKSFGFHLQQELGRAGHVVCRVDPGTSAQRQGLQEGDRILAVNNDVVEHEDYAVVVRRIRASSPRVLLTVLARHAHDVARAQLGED
Chain of GRIP2_4, Q9C0E4 (Q9C0E4 446-548): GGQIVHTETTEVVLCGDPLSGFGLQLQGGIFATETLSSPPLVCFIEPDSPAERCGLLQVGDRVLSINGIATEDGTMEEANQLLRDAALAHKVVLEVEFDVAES
Chain of DLG4_3, P78352 (P78352 306-403): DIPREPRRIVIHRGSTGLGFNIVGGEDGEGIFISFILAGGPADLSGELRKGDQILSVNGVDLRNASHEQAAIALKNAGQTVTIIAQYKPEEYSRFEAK
Chain of HTRA1, Q92743 (Q92743 360-477): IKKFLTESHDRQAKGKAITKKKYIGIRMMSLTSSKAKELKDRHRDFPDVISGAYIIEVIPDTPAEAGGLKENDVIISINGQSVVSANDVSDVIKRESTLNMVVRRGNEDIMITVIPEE
Chain of MAGI3_2, Q5TCQ9 (Q5TCQ9 398-503): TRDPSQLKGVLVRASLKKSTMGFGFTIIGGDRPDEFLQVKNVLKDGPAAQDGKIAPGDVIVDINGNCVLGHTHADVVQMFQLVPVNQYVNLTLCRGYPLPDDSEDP
Chain of LNX1_2, Q8TBB1 (Q8TBB1 371-470): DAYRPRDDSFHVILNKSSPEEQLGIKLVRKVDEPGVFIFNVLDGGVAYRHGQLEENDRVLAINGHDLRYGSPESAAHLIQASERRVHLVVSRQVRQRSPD
Chain of Inadl_6, Q8NI35 (Q8NI35 1058-1167): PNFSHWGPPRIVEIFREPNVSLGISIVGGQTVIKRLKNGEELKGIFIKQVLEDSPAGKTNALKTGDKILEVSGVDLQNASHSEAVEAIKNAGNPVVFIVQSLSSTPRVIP
Chain of TJP1_3, Q07157 (Q07157 416-512): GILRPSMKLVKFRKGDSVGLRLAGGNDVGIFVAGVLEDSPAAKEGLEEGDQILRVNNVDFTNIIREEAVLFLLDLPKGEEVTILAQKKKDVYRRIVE
Chain of DLG2_2, Q15700 (Q15700 189-283): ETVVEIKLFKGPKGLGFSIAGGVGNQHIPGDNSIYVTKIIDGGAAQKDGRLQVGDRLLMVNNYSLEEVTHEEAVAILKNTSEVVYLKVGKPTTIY
Chain of GRIP2_6, Q9C0E4 (Q9C0E4 648-740): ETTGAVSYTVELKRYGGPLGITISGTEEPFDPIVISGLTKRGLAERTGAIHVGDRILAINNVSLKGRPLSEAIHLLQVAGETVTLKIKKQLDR

For LCKSHAFSHV [PDLIM7, Q9NR12;Q9NR12-1], the pKd (CARD11, Q9BXL7; [1]) was “below the threshold”, the pKd (GRIP2_4, Q9C0E4; [1]) was “below the threshold” and the pKd (APBA3_1, O96018; [1]) was “below the threshold”. For the same binder, the pKd (DLG4_3, P78352; [1]) was “below the threshold”, the pKd (HTRA2, O43464; [1]) was “below the threshold” and the pKd (NHERF4_1, Q86UT5-2; [1]) was “below the threshold”. For the same binder, the pKd (SNTB1, Q13884; [1]) was “below the threshold”, the pKd (GRIP2_6, Q9C0E4; [1]) was “below the threshold” and the pKd (GORASP2, Q9H8Y8; [1]) was “below the threshold”. The pKd (TJP1_3, Q07157; [1]) was “below the threshold”, the pKd (LRRC7, Q96NW7; [1]) was “below the threshold” and the pKd (HTRA3, P83110; [1]) was “below the threshold”. For the same binder, the pKd (GRIP1_5, Q9Y3R0; [1]) was “below the threshold”, the pKd (LNX1_2, Q8TBB1; [1]) was “below the threshold” and the pKd (FRMPD3, Q5JV73; [1]) was “below the threshold”. For the same binder, the pKd (MAGI3_2, Q5TCQ9; [1]) was 4.3, the pKd (Inadl_6, Q8NI35; [1]) was “below the threshold” and the pKd (TJP3_3, O95049; [1]) was “below the threshold”. For the same binder, the pKd (LAP2, Q96RT1; [1]) was “below the threshold”, the pKd (PDZRN4_1, Q6ZMN7; [1]) was “below the threshold” and the pKd (MPP7, Q5T2T1; [1]) was “below the threshold”. The pKd (DVL3, Q92997; [1]) was “below the threshold”, the pKd (GOPC, Q9HD26; [1]) was “below the threshold” and the pKd (LNX2_3, Q8N448; [1]) was “below the threshold”.

CLDTSRETDL [KCNA5, P22460] was tested, and the pKd (CARD11, Q9BXL7; [2]) was “below the threshold”, the pKd (GRIP2_4, Q9C0E4; [2]) was “below the threshold” and the pKd (APBA3_1, O96018; [2]) was “below the threshold”. For the same binder, the pKd (DLG2_2, Q15700; [2]) was 4.19, the pKd (DLG4_3, P78352; [2]) was “below the threshold” and the pKd (HTRA2, O43464; [2]) was “below the threshold”. For the same binder, the pKd (NHERF4_1, Q86UT5-2; [2]) was “below the threshold”, the pKd (SNTB1, Q13884; [2]) was 5.51 and the pKd (GRIP2_6, Q9C0E4; [2]) was 3.54. For the same binder, the pKd (GORASP2, Q9H8Y8; [2]) was 3.58, the pKd (TJP1_3, Q07157; [2]) was “below the threshold” and the pKd (LRRC7, Q96NW7; [2]) was 3.68. The pKd (HTRA1, Q92743; [2]) was “below the threshold”, the pKd (HTRA3, P83110; [2]) was “below the threshold” and the pKd (GRIP1_5, Q9Y3R0; [2]) was “below the threshold”. For the same binder, the pKd (LNX1_2, Q8TBB1; [2]) was “below the threshold”, the pKd (FRMPD3, Q5JV73; [2]) was “below the threshold” and the pKd (MAGI3_2, Q5TCQ9; [2]) was “below the threshold”. For the same binder, the pKd (Inadl_6, Q8NI35; [2]) was 3.93, the pKd (LNX1_1, Q8TBB1; [2]) was 3.91 and the pKd (TJP3_3, O95049; [2]) was “below the threshold”. For the same binder, the pKd (LAP2, Q96RT1; [2]) was 3.5, the pKd (PDZRN4_1, Q6ZMN7; [2]) was 3.98 and the pKd (MPP7, Q5T2T1; [2]) was “below the threshold”. For the same binder, the pKd (DVL3, Q92997; [2]) was “below the threshold”, the pKd (GOPC, Q9HD26; [2]) was “below the threshold” and the pKd (LNX2_3, Q8N448; [2]) was “below the threshold”.

With TEEEVQDTRL [CFTR, P13569] the pKd (CARD11, Q9BXL7; [2]) was “below the threshold”, the pKd (GRIP2_4, Q9C0E4; [2]) was “below the threshold” and the pKd (APBA3_1, O96018; [2]) was “below the threshold”. The pKd (DLG2_2, Q15700; [2]) was “below the threshold”, the pKd (DLG4_3, P78352; [2]) was “below the threshold” and the pKd (HTRA2, O43464; [2]) was “below the threshold”. For the same binder, the pKd (NHERF4_1, Q86UT5-2; [2]) was “below the threshold”, the pKd (SNTB1, Q13884; [2]) was 4.2 and the pKd (GRIP2_6, Q9C0E4; [2]) was “below the threshold”. The pKd (GORASP2, Q9H8Y8; [2]) was “below the threshold”, the pKd (TJP1_3, Q07157; [2]) was “below the threshold” and the pKd (LRRC7, Q96NW7; [2]) was “below the threshold”. The pKd (HTRA1, Q92743; [2]) was “below the threshold”, the pKd (HTRA3, P83110; [2]) was “below the threshold” and the pKd (GRIP1_5, Q9Y3R0; [2]) was “below the threshold”. For the same binder, the pKd (LNX1_2, Q8TBB1; [2]) was “below the threshold”, the pKd (FRMPD3, Q5JV73; [2]) was “below the threshold” and the pKd (MAGI3_2, Q5TCQ9; [2]) was “below the threshold”. The pKd (Inadl_6, Q8NI35; [2]) was “below the threshold”, the pKd (LNX1_1, Q8TBB1; [2]) was “below the threshold” and the pKd (TJP3_3, O95049; [2]) was “below the threshold”. The pKd (LAP2, Q96RT1; [2]) was “below the threshold”, the pKd (PDZRN4_1, Q6ZMN7; [2]) was 3.99 and the pKd (MPP7, Q5T2T1; [2]) was “below the threshold”. The pKd (DVL3, Q92997; [2]) was “below the threshold” and the pKd (LNX2_3, Q8N448; [2]) was “below the threshold”.

EDEDEQVSAV [RAPGEF2, Q9Y4G8] was tested, and the pKd (CARD11, Q9BXL7; [1]) was “below the threshold”, the pKd (GRIP2_4, Q9C0E4; [1]) was “below the threshold” and the pKd (APBA3_1, O96018; [1]) was “below the threshold”. The pKd (DLG2_2, Q15700; [1]) was “below the threshold”, the pKd (DLG4_3, P78352; [1]) was “below the threshold” and the pKd (HTRA2, O43464; [1]) was “below the threshold”. For the same binder, the pKd (NHERF4_1, Q86UT5-2; [1]) was “below the threshold”, the pKd (SNTB1, Q13884; [1]) was 3.87 and the pKd (GRIP2_6, Q9C0E4; [1]) was “below the threshold”. The pKd (GORASP2, Q9H8Y8; [1]) was “below the threshold”, the pKd (TJP1_3, Q07157; [1]) was “below the threshold” and the pKd (LRRC7, Q96NW7; [1]) was “below the threshold”. The pKd (HTRA1, Q92743; [1]) was 4.18, the pKd (HTRA3, P83110; [1]) was “below the threshold” and the pKd (GRIP1_5, Q9Y3R0; [1]) was “below the threshold”. The pKd (LNX1_2, Q8TBB1; [1]) was “below the threshold”, the pKd (FRMPD3, Q5JV73; [1]) was “below the threshold” and the pKd (MAGI3_2, Q5TCQ9; [1]) was “below the threshold”. The pKd (Inadl_6, Q8NI35; [1]) was 3.81, the pKd (LNX1_1, Q8TBB1; [1]) was “below the threshold” and the pKd (TJP3_3, O95049; [1]) was “below the threshold”. The pKd (LAP2, Q96RT1; [1]) was 3.62, the pKd (PDZRN4_1, Q6ZMN7; [1]) was “below the threshold” and the pKd (MPP7, Q5T2T1; [1]) was “below the threshold”. For the same binder, the pKd (DVL3, Q92997; [1]) was “below the threshold”, the pKd (GOPC, Q9HD26; [1]) was “below the threshold” and the pKd (LNX2_3, Q8N448; [1]) was “below the threshold”.

From PMC9482650, “Quantitative fragmentomics allow affinity mapping of interactomes” (Nature Communications, 2022)
